Entries after “also recorded” stand apart in the source; their conditions may differ. Where two headings read alike, the source gives them in different places.
Key:
[1] = Phase 1/2 study of Compound 1: pharmacokinetics; assay type: in vivo, human; settings: for half-life: in vivo
Description: (§1) This is a first-in-human, Phase 1/2 open-label, multicenter, dose-escalation, safety, pharmacokinetics (PK), and biomarker study of Compound 1 in subjects with advanced or metastatic refractory solid tumors.
• To determine the pharmacokinetics (PK) of Compound 1 • To evaluate the preliminary anti-tumor activity of Compound 1 based on Response Evaluation Criteria in Solid Tumors (RECIST) 1.1 as follows: • Objective response rate (ORR) • Duration of response (DoR) • Progression-free survival (PFS)
(§2) The subject will receive treatment with Compound 1 and be monitored for safety and disease status by AE assessment, physical examination, laboratory tests, radiologic assessment, and ECG. PK and biomarker samples will be collected. All AEs and serious adverse events (SAEs) will be assessed using the National Cancer Institute Common Terminology Criteria for Adverse Events (NCI CTCAE) v5.0. Disease assessments by computed tomography (CT) or magnetic resonance imaging (MRI) will be conducted at protocol-specific intervals. Subjects may continue treatment as long as they are tolerating treatment without disease progression based on RECIST 1.1.
(§3) Compound 1 was administered as a 1-hour IV infusion. As set forth above, the first patient on study was treated with a starting dose of 0.25 mg/kg, which was dosed daily five times a week every 3 weeks (Schedule A). Initially. an accelerated dose tritation was utilized, wherein single patient cohorts were accrued and the dose was escalated up to 100% for each new cohort until the occurrence of Grade 2 or greater treatment-related adverse events (TRAEs). A single patient was accrued to Cohort A1 (0.25 mg/kg). The dose was doubled to 0.5 mg/kg for Cohort A2, and 3 patients were accrued to this cohort due to the occurrence of greater than Grade 2 level adverse events.

[2] = Phase 1/2 study of Compound 1: safety and tolerability (adverse events, NCI CTCAE v5.0); assay type: in vivo, human
Description: as §1
• To determine the safety and tolerability, maximum tolerated doses (MTDs) and dose limiting toxicities (DLTs) of Compound 1 in subjects with advanced or metastatic refractory solid tumors when administered on the following schedules: • Daily×5 every 3 weeks (Part A) • Daily×3 every 3 weeks (Part B) • To establish the Recommended Phase 2 Dose (RP2D) of Compound 1 for each schedule
as §2
DLTs will be assessed for all subjects enrolled in Phase I through their initial 3-week cycle of treatment (Cycle 1, the DLT period). Any AE occurring during the DLT period deemed at least possibly related to Compound 1 and meeting the criteria below will be designated a DLT. […] This will, however, be considered in the SRC's subsequent dose-level recommendations.
as §3
Schedule B: once daily three times per week every three weeks, on a mg/m^2 basis (in other words, the dosage was calculated based on the patient's body surface area)
Schedule C: once weekly on a mg/m^2 basis. Patients treated on this schedule received a sentinel dose on Day -14 followed by 2 weeks of no treatment to evaluate the full PK profile of Compound 1 and exatecan. Once weekly dosing started Cycle 1 Day 1.

[3] = Subject 1-5, Ovarian, prior TOP1 inhibitor Yes, Cohort B1 20 mg/m^2, Schedule B: Daily x 3 Every 3 Weeks
[4] = Subject 1-8, Pancreas, prior TOP1 inhibitor Yes, Cohort C1 20 mg/m^2, Schedule C: Once Weekly
[5] = Subject 1-9, Colorectal, prior TOP1 inhibitor Yes, Cohort B3 45 mg/m^2, Schedule B: Daily x 3 Every 3 Weeks
[6] = Subject 2-4, Appendiceal, prior TOP1 inhibitor Yes, Cohort B2 30 mg/m^2, Schedule B: Daily x 3 Every 3 Weeks
[7] = Subject 2-6, Breast, prior TOP1 inhibitor No, Cohort B2 30 mg/m^2, Schedule B: Daily x 3 Every 3 Weeks
[8] = Subject 2-12, Breast, prior TOP1 inhibitor No, Cohort B4 60 mg/m^2, Schedule B: Daily x 3 Every 3 Weeks
[9] = Subject 3-1, Colorectal, prior TOP1 inhibitor Yes, Cohort B3 45 mg/m^2, Schedule B: Daily x 3 Every 3 Weeks
[10] = Subject 5-2, Colorectal, prior TOP1 inhibitor Yes, Cohort B4 60 mg/m^2, Schedule B: Daily x 3 Every 3 Weeks

Compound: CC[C@@]1(O)C(=O)OCc2c1cc1n(c2=O)Cc2c-1nc1cc(F)c(C)c3c1c2[C@@H](NC(=O)O[C@H]1CCCC[C@@H]1SSC[C@H](NC(=O)[C@H](Cc1c[nH]c2ccccc12)NC(=O)[C@H](CC(C)C)NC(=O)[C@H](CC(C)C)NC(=O)[C@H](CC(=O)O)NC(=O)[C@H](CC(C)C)NC(=O)[C@H](CC(C)C)NC(=O)[C@H](CC(C)C)NC(=O)[C@@H](NC(=O)[C@H](CC(=O)O)NC(=O)[C@@H](NC(=O)[C@@H]1CCCN1C(=O)[C@H](Cc1ccccc1)NC(=O)[C@H](CC(C)C)NC(=O)[C@H](CC(C)C)NC(=O)[C@H](CC(=O)O)NC(=O)[C@H](CC(C)C)NC(=O)[C@H](Cc1ccc(O)cc1)NC(=O)[C@H](C)NC(=O)[C@H](CCCNC(=N)N)NC(=O)[C@H](Cc1c[nH]c2ccccc12)NC(=O)[C@@H]1CCCN1C(=O)[C@H](CC(N)=O)NC(=O)[C@H](CCC(N)=O)NC(=O)[C@H](CC(=O)O)NC(=O)[C@H](CC(=O)O)NC(=O)[C@H](C)N)[C@@H](C)O)[C@@H](C)O)C(=O)NCC(=O)O)CC3 [Compound 1]
- accumulation ([1]; five consecutive days of dosing, Schedule A): significant accumulation
- half-life ([1]; human, initial four patients, Schedule A (daily five times a week every 3 weeks), 0.25-0.5 mg/kg, 1-hour IV infusion, read-out: half-life of Compound 1 (converted)): ~20 h
- half-life ([1]; prediction made before the study, read-out: predicted half-life (converted)): ~8 h
- adverse events, Grade level ([2]; Cohort A2, 0.5 mg/kg, Schedule A, 3 patients): > 2
- Treatment-Related Adverse Events, Gr 1 [2, 3]: Gr 1: Fatigue
- Treatment-Related Adverse Events, Gr 2 [2, 3]: Dehydration
- Treatment-Related Adverse Events ([2]; Subject 1-6, Testicular, prior TOP1 inhibitor No, Cohort B1 20 mg/m^2, Schedule B: Daily x 3 Every 3 Weeks): No TRAEs
- Treatment-Related Adverse Events, Gr 2 ([2]; Subject 1-7, Esophageal/GEJ (baseline Hgb 9.4), Cohort B1 20 mg/m^2, Schedule B: Daily x 3 Every 3 Weeks): Gr 2: Anemia
- Treatment-Related Adverse Events, Gr 1 ([2]; Subject 1-7, Esophageal/GEJ, prior TOP1 inhibitor No, Cohort B1 20 mg/m^2, Schedule B: Daily x 3 Every 3 Weeks): Gr 1: Fatigue,
- Treatment-Related Adverse Events, Gr 1 [2, 4]: Gr 1: Vomiting
- Treatment-Related Adverse Events, Gr 2 [2, 4]: Gr 2: Nausea
- Treatment-Related Adverse Events, Gr 1 [2, 5]: Gr 1: Vomiting,; also recorded: diarrhea
- Treatment-Related Adverse Events, Gr 2 [2, 5]: Gr 2: Nausea
- Treatment-Related Adverse Events, Gr 3 ([2]; Subject 1-9, Colorectal, AST/ALT elevation resolved to Gr 1 in 2-3 days, Cohort B3 45 mg/m^2, Schedule B: Daily x 3 Every 3 Weeks): anemia
- Treatment-Related Adverse Events ([2]; Subject 2-1, Pancreas, prior TOP1 inhibitor Yes, Cohort C1 20 mg/m^2, Schedule C: Once Weekly): No TRAES
- Treatment-Related Adverse Events ([2]; Subject 2-2, Colon, prior TOP1 inhibitor Yes, Cohort C1 20 mg/m^2, Schedule C: Once Weekly, off treatment after PK period): No TRAEs
- Treatment-Related Adverse Events, Gr 2 ([2]; Subject 2-3, Ovarian, prior TOP1 inhibitor No, Cohort C1 20 mg/m^2, Schedule C: Once Weekly): Gr 2: Fatigue
- Treatment-Related Adverse Events, Gr 1 [2, 6]: Gr 1: Anemia
- Treatment-Related Adverse Events, Gr 2 [2, 6]: Gr 2: Nausea,; also recorded: vomiting
- Treatment-Related Adverse Events, Gr 3 ([2]; Subject 2-5, Breast, prior TOP1 inhibitor Yes (C4D11), Cohort B2 30 mg/m^2, Schedule B: Daily x 3 Every 3 Weeks): Neutropenia
- Treatment-Related Adverse Events, Gr 1 [2, 7]: Gr 1: Fatigue,; also recorded: nausea
- Treatment-Related Adverse Events, Gr 2 [2, 7]: Neutropenia,; also recorded: WBC decrease
- Treatment-Related Adverse Events ([2]; Subject 2-8, Osteosarcoma, prior TOP1 inhibitor Unknown, Cohort B3 45 mg/m^2, Schedule B: Daily x 3 Every 3 Weeks, removed from study on C1D2): No TRAEs
- Treatment-Related Adverse Events ([2]; Subject 2-9, Breast, prior TOP1 inhibitor No, Cohort C1 20 mg/m^2, Schedule C: Once Weekly): No TRAEs
- Treatment-Related Adverse Events, Gr 2 ([2]; Subject 2-11, Ovarian (C1D1 Hgb = 10.3), Cohort B3 45 mg/m^2, Schedule B: Daily x 3 Every 3 Weeks): Gr 2: Anemia
- Treatment-Related Adverse Events, Gr 3 ([2]; Subject 2-11, Ovarian (resolved in 2 days), Cohort B3 45 mg/m^2, Schedule B: Daily x 3 Every 3 Weeks): Neutropenia
- Treatment-Related Adverse Events, Gr 1 ([2]; Subject 2-11, Ovarian, prior TOP1 inhibitor No, Cohort B3 45 mg/m^2, Schedule B: Daily x 3 Every 3 Weeks): Gr 1: Nausea,; also recorded: lipase increase,; also recorded: alopecia
- Treatment-Related Adverse Events, Gr 1 [2, 8]: Gr 1: Vomiting
- Treatment-Related Adverse Events, Gr 2 [2, 8]: Gr 2: Colitis
- Treatment-Related Adverse Events, Gr 4 [2, 8]: Neutropenia,; also recorded: thrombocytopenia
- Treatment-Related Adverse Events, Gr 1 [2, 9]: Gr 1: Headache
- Treatment-Related Adverse Events, Gr 2 [2, 9]: Gr 2: Nausea,; also recorded: WBC decrease,; also recorded: ANC decrease,; also recorded: diarrhea
- Treatment-Related Adverse Events, Gr 2 [2, 10]: Gr2: Vomiting,; also recorded: dehydration
- Treatment-Related Adverse Events, Gr 3 [2, 10]: anemia
- Treatment-Related Adverse Events, Gr 4 [2, 10]: Neutropenia,; also recorded: thrombocytopenia

Source: patent US20240226308A1, “DOSING REGIMENS OF PEPTIDE CONJUGATES OF TOPOISOMERASE I INHIBITORS” (CYBREXA 2, INC., priority 2021, published 2024)
